Source: PMC5034309, “Real-time visualization of conformational changes within single MloK1 cyclic nucleotide-modulated channels” (Nature Communications, 2016)

Biological target: the molecule itself
Assay: high-speed atomic force microscopy (HS-AFM); MloK1 2D crystals in lipid membrane adsorbed on mica; imaging buffer 10 mM Tris pH 7.4, 150 mM KCl, 100 uM cAMP; oscillating mode

B1: MloK1 cyclic nucleotide-modulated channel from Mesorhizobium loti (natural protein, UniProt Q98GN8 1-355, looked up)
chain: MSVLPFLRIYAPLNAVLAAPGLLAVAALTIPDMSGRSRLALAALLAVIWGAYLLQLAATLLKRRAGVVRDRTPKIAIDVLAVLVPLAAFLLDGSPDWSLYCAVWLLKPLRDSTFFPVLGRVLANEARNLIGVTTLFGVVLFAVALAAYVIERDIQPEKFGSIPQAMWWAVVTLSTTGYGDTIPQSFAGRVLAGAVMMSGIGIFGLWAGILATGFYQEVRRGDFVRNWQLVAAVPLFQKLGPAVLVEIVRALRARTVPAGAVICRIGEPGDRMFFVVEGSVSVATPNPVELGPGAFFGEMALISGEPRSATVSAATTVSLLSLHSADFQMLCSSSPEIAEIFRKTALERRGAAASA
notes: MloK1, cyclic nucleotide-modulated potassium channel of Mesorhizobium loti, full-length, wild type; The C-terminal hexahistidine tag was cleaved with thrombin after 2D crystallisation and before HS-AFM; Residues of the thrombin site may remain; also called wild-type MloK1; not shown: His6, C-terminal, cleaved
**Q.** B1 was tested. Which “stoichiometry N” value did it give?
**A.** 4
